This is an account of results in publication PMC3489907, “The Human Homolog of Escherichia coli Endonuclease V Is a Nucleolar Protein with Affinity for Branched DNA Structures”.

This data set deals with T1, ENDOV WT (human endonuclease V, exon 10 isoform) (Homo sapiens, UniProt Q8N8Q3 1-282).
T1 sequence: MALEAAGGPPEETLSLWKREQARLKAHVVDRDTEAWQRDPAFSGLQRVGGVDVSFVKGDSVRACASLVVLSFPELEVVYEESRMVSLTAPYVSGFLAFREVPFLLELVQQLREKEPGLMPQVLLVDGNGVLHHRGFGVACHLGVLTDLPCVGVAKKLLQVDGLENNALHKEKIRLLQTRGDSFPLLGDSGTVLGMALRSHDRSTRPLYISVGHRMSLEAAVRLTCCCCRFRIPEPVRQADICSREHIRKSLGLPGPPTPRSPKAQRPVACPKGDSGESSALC
As to the kind of experiment: EMSA; 5 mM Ca2+; EMSA: 10 fmol DNA in 10 µl, 5 ng pQE31 competitor DNA, 5 mM CaCl2, 10 mM HEPES-KOH pH 7.4, 1 mM DTT, 20% glycerol, 4°C 15 min; 10% native PAGE with 5 mM CaCl2 on ice; ENDOV 1.6-6.4 pmol, E. coli endoV 2-8 pmol. The note with it: protein: recombinant, tags: none (His6-MBP removed with TEV).

B1: Holliday junction (16+17*+18+19) (structured_DNA)
DNA 1: CCGCTACCAGTGATCACCAATGGATTGCTAGGACATCTTTGCCCACCTGCAGGTTCACCC
DNA 2: TGGGTGAACCTGCAGGTGGGCAAAGATGTCCTAGCAATCCATTGTCTATGACGTCAAGCT
DNA 3: GAGCTTGACGTCATAGACAATGGATTGCTAGGACATCTTTGCCGTCTTGTCAATATCGGC
DNA 4: TGCCGATATTGACAAGACGGCAAAGATGTCCTAGCAATCCATTGGTGATCACTGGTAGCGG
Regarding B1, the binding result (label: 5'-32P on strand 2, four-way junction 1:2 2:3 3:4 4:1) is listed as “binds”.

B2: 5'-flap (10+12+13*) (structured_DNA)
DNA 1: GGATACGTAACAACGCTTATGCATCGCCGCCGCTACATCCCTGAGCTGAC
DNA 2: GTCAGCTCAGGGATGTAGCGGCGG
DNA 3: TGTGTTCGATCTCGATCAGAATGACGATGCATAAGCGTTGTTACGTATCC
Turning to B2, the binding result (label: 5'-32P on strand 3, 5'-flap, 1:2 1:3, 5' part of strand 3 unpaired (24 nt)) is “binds”.

B3: 3-way junction (10*+13+14) (structured_DNA)
DNA 1: B2 DNA 1
DNA 2: B2 DNA 3
DNA 3: GTCAGCTCAGGGATGTAGCGGCGGAGTCATTCTGATCGAGATCGAACACA
On to B3, for which the binding result (label: 5'-32P on strand 1, three-way junction 1:2 1:3 2:3) is reported as “binds”.

B4: pseudo-Y (10*+13) (structured_DNA)
DNA 1: B2 DNA 1
DNA 2: B2 DNA 3
B4: for the setting “label: 5'-32P on strand 1, splayed duplex 1:2, 3' part of strand 1 and 5' part of strand 2 unpaired (24 nt each)”, the binding result is on record as “binds”.

B5: 3'-flap (10+11+14*) (structured_DNA)
DNA 1: B2 DNA 1
DNA 2: ATGCATAAGCGTTGTTACGTATCC
DNA 3: B3 DNA 3
Regarding B5, the binding result (label: 5'-32P on strand 3, 3'-flap, 1:2 1:3, 3' part of strand 3 unpaired) is on record as “binds”.

B6: fork (10+11+14*+15) (structured_DNA)
DNA 1: B2 DNA 1
DNA 2: ATGCATAAGCGTTGTTACGTATCC
DNA 3: B3 DNA 3
DNA 4: TGTGTTCGATCTCGATCAGAATGA
As for B6, the binding result (label: 5'-32P on strand 3, fork 1:2 1:3 3:4) is recorded as “binds”.
